Reference: US20230078601A1 (CLEVELAND CLINIC FOUNDATION, published 2023)

Experiments:
Native p17-33 = target: T1, Native p17-33; assay: SPOT peptide array of membrane-bound 17-mer peptides, 4D12G1, chemiluminescence
T1 construct: also called AMHR2-ED 17-33 17-mer peptide
T1 peptide: GSTKTLGELLDTGTELP
Description: (§1) on cellulose membranes (JPT Peptide Technologies, Berlin, Germany), treated overnight with blocking buffer (Thermo Fisher), followed by treatment with the 4D12G1 mAb at 1.0 μg/ml for 3 hours at room temperature, followed by three washes with PBS containing 0.01% Tween-20 (Bio-Rad). The membranes were then treated with a 1:10,000 dilution of an HRP-conjugated rabbit anti-mouse IgG (MilliporeSigma) followed by three washes with PBS containing 0.01% Tween-20 (Bio-Rad). Bound antibody was detected using the HyGLO chemiluminescence system (Thomas Scientific).
An overlapping series of 16-mer peptides spanning the entire 132 amino acid sequence of human AMHR2-ED (FIG. 3A) with moving single amino acid shifts were plated for direct ELISA testing using the 4D12G1 mAb as primary antibody. […] To determine amino acids recognized by the 4D12G1 mAb, an overlapping series of peptides spanning the immunoreactive sequence comprising AMHR2-ED 13-30 were synthesized with alanine substitutions at each N-terminal residue or with glycine substitutions for any native N-terminal alanine. These peptides were used in competitive ELISAs to determine which residues inhibit binding of the 4D12G1 mAb with solid phase rhAMHR2-ED. […] Bound antibody was detected by chemiluminescence. […]

[1] = target: T2, recombinant extracellular domain of human AMHR2 (rhAMHR2-ED), C-terminal hexahistidine-tagged fusion protein (human, UniProt Q16671 18-149); assay: SPR, Biacore 3000, 25 C; 4D12G1 immobilised by amine coupling, rhAMHR2-ED as analyte, Langmuir 1:1 fit
T2 construct: also called human AMHR2-ED
T2 sequence: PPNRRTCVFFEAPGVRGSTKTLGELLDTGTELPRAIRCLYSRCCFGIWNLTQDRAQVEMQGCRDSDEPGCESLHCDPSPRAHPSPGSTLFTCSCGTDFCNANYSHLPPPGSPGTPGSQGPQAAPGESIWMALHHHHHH
Description: Briefly, the 4D12G1 mAb at 300 nM was diluted in sodium acetate at pH 5.0 and covalently immobilized on carboxymethylated dextran over a gold surface using an aqueous solution of N-ethyl-N′-(3-dimethylaminopropyl)carbodiimide (EDC) and N-hydroxysuccinimide (NHS; Sigma-Aldrich). The rhAMHR2-ED receptor analyte at different concentrations (10-1-103 nM) in a running buffer containing 10 mM HEPES at pH 7.4, 150 mM NaCl, 3 mM EDTA, and 0.005% P20 detergent was captured with a […] flow over the immobilized 4D12G1 ligand. Regeneration of flow cells was performed using 10 mM glycine (Sigma-Aldrich) at pH 1.7. All sensorgrams were corrected by subtracting the low signal of the control flow cell and the dissociation curve of the 4D12G1 mAb. The KD values, taking into account affinity and avidity, were calculated using a Langmuir 1:1 fitting model and BIAevaluation 3.2 software (GE Healthcare Bio-Sciences).
An overlapping series of 16-mer peptides spanning the entire 132 amino acid sequence of human AMHR2-ED (FIG. 3A) with moving single amino acid shifts were plated for direct ELISA testing using the 4D12G1 mAb as primary antibody. […]

[2] = target: T3, AMHR2-ED 22-26 5-mer peptide (LGELL) (human); assay: SPOT peptide array, 4D12G1 at 1.0 ug/ml, chemiluminescence
T3 construct: Synthesised on a cellulose membrane (SPOT peptide array); also called 22LGELL26; Residues 22-26 of AMHR2-ED and 39-43 of AMHR2
T3 peptide: LGELL
Description: as §1, with “The AMHR2-ED binding sequence of the 4D12G1 mAb and the critical AMHR2-ED residues for such binding were confirmed by SPOT peptide arrays. Peptides spanning the AMHR2-ED 9-40 immunoreactive region and ranging from 4-16-mers in length were synthesized >90% pure on cellulose” for “on cellulose”
An overlapping series of 16-mer peptides spanning the entire 132 amino acid sequence of human AMHR2-ED (FIG. 3A) with moving single amino acid shifts were plated for direct ELISA testing using the 4D12G1 mAb as primary antibody. […] To determine amino acids recognized by the 4D12G1 mAb, an overlapping series of peptides spanning the immunoreactive sequence comprising AMHR2-ED 13-30 were synthesized with alanine substitutions at each N-terminal residue or with glycine substitutions for any native N-terminal alanine. […] Bound antibody was detected by chemiluminescence.

binding result (Native p17-33): binds
Kd [1]: 0.119 nM
binding result [2]: binds
B1: 4D12G1 mAb (antibody, IgG1, V domains shown)
VH: DVKLVESGGGLVKLGGSLKLSCAASGFTFSRYFMSWVRQTPEKRLELVAAINSDGGRTYYPDTVKGRFTISRDNAKNTLYLQMSSLKSEDTALYYCTRHIYSYYEDYFDYWGQGTTLTVSS
VL: DVVMTQTPLSLPVSLGDQASISCRSSQSLVHSNGNTYLHWYLQKPGQSPKLLIYKVSKRFSGVPDRFSGSGSGTDFTLKISRVEAEDLGVYFCSQSTHVYTFGGGTKLEIK
notes: also called 4D12G1 IgG1 mAb
